Assay results reported in the supplement of paper PMC11865577.

Key:
Experiment in all cases: pull-down binding Z-score (relative to library population); higher = stronger binding
[1] = system: TO-3-N3 (biotin conjugate); details: RNA library: Library-2
How it was run: (§1)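 Biotin-conjugated small molecule (100 pmol) on streptavidin beads was incubated with 1 μg of heat-folded Cy5- or Cy3-end-labelled RNA library in phosphate/NaCl/KCl buffer at 25 °C for 60 min. Following three washes, RNA was eluted with hot SDS and hybridised at 55.5 °C for 20 h to a DNA barcode microarray. The binding value is a Z-score computed from the library mean and standard deviation, after subtraction of beads without compound and averaging of barcoded replicate probes with the highest and lowest excluded.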

[2] = system: G-clamp-N3 (biotin conjugate); details: RNA library: Library-1 (pre-miRNA loops + repeats)
How it was run: as §1

[3] = system: TO-N3-2 (biotin conjugate); details: RNA library: Library-2
How it was run: as §1

[4] = system: TO-N3 (biotin conjugate); details: RNA library: Library-2
How it was run: as §1

[5] = system: TO-3-N3-2 (biotin conjugate); details: RNA library: Library-2
How it was run: as §1

Row | Sequence | pull-down binding Z-score [1] | pull-down binding Z-score [2] | pull-down binding Z-score [3] | pull-down binding Z-score [4] | pull-down binding Z-score [5]
1 | GGACCCUCUCUCUACCUCU [hsa-mir-4315-1_4315-2] | -0.211 | -0.489 | 0.0855 | -0.188 | -0.12
2 | GGACGUCACCACCAUGGCC [hsa-mir-650] | 0.0495 | -1.19 | 0.358 | 0.232 | 0.247
3 | GGACUCAGCCCUGUGCUGAGCCC [hsa-mir-5587] | 0.722 | -0.0279 | -0.961 | 0.532 | -0.313
4 | GGACUUGCGGUUCA [hsa-mir-8057] | -0.0023 | -1.11 | 0.109 | -0.0278 | -0.281
5 | GGAGAAGACUUUUCCUUUCCUCC [hsa-mir-4660] | -0.1 | -0.415 | -0.545 | -0.139 | -0.212
6 | GGAGACACUUUCACUAUAUAUAGUGGCUCC [hsa-mir-3156-2] | -0.948 | -0.175 | -1.03 | -1.34 | -0.571
7 | GGAGACACUUUUACUAUAUAUAGUGGCUCC [hsa-mir-3156-1] | -1.09 | -0.0968 | -1.51 | -1.5 | -0.555
8 | GGAGACCCUAUACAUACCUGUUUCC [hsa-mir-5581] | -0.408 | -2.1 | -0.354 | -0.37 | -0.187
9 | GGAGACGGGUCUUUCUC [hsa-mir-1208] | 0.816 | -1.52 | 0.758 | 1.04 | 0.466
10 | GGAGAGGAUCCACCUGUCCUGUCC [hsa-mir-6165] | 0.416 | 0.202 | 0.393 | 0.374 | -0.113
11 | GGAGAGUAUGGUCACAGCAGCAUCCUCC [hsa-mir-6780a] | -0.0714 | 0.186 | 0.36 | -0.0981 | -0.326
12 | GGAGAUCGUACC [hsa-mir-4430] | -0.109 | -0.504 | -0.15 | -0.107 | -0.372
13 | GGAGAUUGGAGUGGCCAGUGUUCCUAAACAAUUC [hsa-mir-4263] | 0.0793 | -0.451 | 0.663 | 0.387 | 0.226
14 | GGAGCAGACAGACCCAACCUCAUGCUCC [hsa-mir-6763] | 0.0429 | -0.993 | 0.247 | 0.219 | -0.471
15 | GGAGCCCGAGCAGCCGCGGUGAA [hsa-mir-7706] | 1.29 | -1.54 | 2.55 | 2.17 | 0.551
16 | GGAGCCUUCCCCAGAGGAGUCAGGCC [hsa-mir-4312] | 0.273 | 0.386 | 1.41 | 0.698 | -0.0198
17 | GGAGCUCAGCACCUGCCUGCCACCCACGCAGACCAGCCCCUGCUCUGUUCCCACAG [hsa-mir-4648] | 0.85 | -0.622 | 1.9 | 1.56 | 0.329
18 | GGAGCUCUGUCCUGUCUCACUCAUUGCUCC [hsa-mir-6749] | -0.331 | -0.199 | 0.177 | -0.473 | -0.272
19 | GGAGCUCUGUGCCUUUGGGUCCUGGUGAGCUCU [hsa-mir-6070] | 0.271 | 0.246 | 0.681 | 0.413 | -0.129

Row | Sequence | pull-down binding Z-score [1] | pull-down binding Z-score [2] | pull-down binding Z-score [3] | pull-down binding Z-score [4] | pull-down binding Z-score [5]
20 | GGAGCUGGCUGCUGGCCUCAGUUCU [hsa-mir-5001] | -0.269 | -1.38 | 1.05 | 0.0865 | -0.449
21 | GGAGGCACUGCCAGGGCUGCCCAC [hsa-mir-1202] | 0.521 | -0.43 | 2.09 | 1.21 | 0.277
22 | GGAGGCAUGAAUGAGCCAUCUUUCCAAUGCCUUUC [hsa-mir-4743] | -0.573 | -1.03 | 0.952 | -0.118 | -0.332
23 | GGAGGCCCCGCCCUGCUGCCGACCCUGUGGAGCGGAGGGUGAAGCCUCC [hsa-mir-3180-5] | 0.326 | 0.844 | 1.98 | 1.1 | 0.0715
24 | GGAGGCCCCGCUCUGCUGCCGACCCUGUGGAGCGGAGGGUGAAGCCUCC [hsa-mir-3180-4] | 0.3 | 1.15 | 1.24 | 0.553 | 0.118
25 | GGAGGGUGAGCUUUCUGAAAACCCCUCC [hsa-mir-188] | 0.345 | 0.536 | -0.0757 | 0.328 | 0.358
26 | GGAGUCCUCUAGACACC [hsa-mir-6510] | 0.483 | -0.716 | -0.175 | 0.373 | -0.348
27 | GGAGUUGAUGCACAGUUAUCCAGCUCC [hsa-mir-337] | -0.577 | -0.406 | -0.0382 | -0.495 | -0.326
28 | GGAUAAGAAUCAGUCAC [hsa-mir-217] | -0.334 | -0.462 | -0.147 | -0.415 | 0.259
29 | GGAUAGAAACUAUUAUUCUAUUC [hsa-mir-664a] | -0.357 | -0.818 | -1.38 | -0.784 | -0.303
30 | GGAUCAUGUUUGCCCCCGUGGACAGCUCUCUGGUGUGCUCCUCCUGCCAUCCUGCCCACCCCUGCAUAAUGCUGCUUC [hsa-mir-6809] | 0.306 | -1.25 | 1.5 | 1.02 | 0.384
31 | GGAUCCCAGAUCAAACCAGGCCC [hsa-mir-331] | -0.36 | -0.859 | 0.63 | -0.177 | -0.114
32 | GGAUGAAAGUCAAAGAAUCC [hsa-mir-1262] | 1.25 | -0.564 | 0.0488 | 1.17 | 0.0666
33 | GGAUGGCCAGGGAAGUAUGCCGGGCCUUGGCAUUUC [hsa-mir-7159] | 0.218 | 2.04 | 1.9 | 0.814 | 0.175
34 | GGAUGGGAGACCUGACCCAUCC [hsa-mir-5195] | -0.0606 | 0.74 | -0.332 | -0.0467 | -0.208
35 | GGAUGUGUUGACCCCUGAAGUGGUUCUGAUGACCUUUCC [hsa-mir-6883] | 0.00863 | -1.11 | 0.938 | 0.387 | -0.03
36 | GGAUUUGCUUCCUGUCACAAAUCA [hsa-mir-23a] | 0.391 | -1.51 | -0.188 | 0.271 | -0.241
37 | GGCACCUACGAUACCCAGUGCC [hsa-mir-3116-2] | -0.264 | -0.645 | 0.165 | -0.383 | -0.0787
